Series [1] deals with T1, IRP1 wild-type (Homo sapiens, UniProt P21399 1-889).
T1 sequence: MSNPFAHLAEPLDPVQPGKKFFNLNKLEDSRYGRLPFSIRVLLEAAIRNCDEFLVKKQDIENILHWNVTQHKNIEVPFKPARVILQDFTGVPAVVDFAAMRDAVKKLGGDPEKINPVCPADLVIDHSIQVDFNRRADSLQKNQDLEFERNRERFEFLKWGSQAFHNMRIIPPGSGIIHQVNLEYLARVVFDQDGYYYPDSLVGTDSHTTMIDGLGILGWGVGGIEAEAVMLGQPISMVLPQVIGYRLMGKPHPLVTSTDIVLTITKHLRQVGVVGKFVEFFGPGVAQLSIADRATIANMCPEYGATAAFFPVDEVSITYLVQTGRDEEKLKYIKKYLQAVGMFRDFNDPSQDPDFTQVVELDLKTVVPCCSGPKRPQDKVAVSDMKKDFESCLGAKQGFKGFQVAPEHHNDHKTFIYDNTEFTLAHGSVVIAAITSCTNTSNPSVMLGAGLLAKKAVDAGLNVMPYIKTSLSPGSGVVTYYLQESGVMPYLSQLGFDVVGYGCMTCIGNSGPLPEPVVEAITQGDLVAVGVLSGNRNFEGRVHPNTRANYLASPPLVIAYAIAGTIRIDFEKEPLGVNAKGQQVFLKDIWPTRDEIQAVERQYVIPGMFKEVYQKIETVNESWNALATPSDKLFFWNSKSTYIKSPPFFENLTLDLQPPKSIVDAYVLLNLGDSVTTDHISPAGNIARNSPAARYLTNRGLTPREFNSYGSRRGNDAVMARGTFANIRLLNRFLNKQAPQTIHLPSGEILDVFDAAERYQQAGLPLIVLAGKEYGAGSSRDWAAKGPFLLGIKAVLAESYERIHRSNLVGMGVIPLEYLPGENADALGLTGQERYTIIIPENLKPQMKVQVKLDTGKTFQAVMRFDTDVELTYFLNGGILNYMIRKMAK
The series is described as follows: EMSA. A general note: A gel shift assay detects complexes by their altered migration in electrophoresis.

The target in series [2] is T1, IRP1 wild-type. The series is described as follows: EMSA. This is another data set of the same source.

UUUUUGUUUCCUGCUUCAACAGUGCUUGGACGGAAC (structured_RNA) [wt-IRE (FTH-IRE)] had a Kd in the series with IRP1 wild-type [1] of 18 ± 5 nM. On to UUUUUGUUUCCUGCUUCAAAGUGCUUGGACGGAAC (structured_RNA) [IRE-ΔC], for which, in the series with IRP1 wild-type [2], the binding signal was ~5 fold unbound RNA fraction vs wt-IRE.

In general, Kd refers to the free concentration of one partner at which half of the binding sites on the other are occupied at equilibrium, for simple one-to-one binding. A lower Kd goes with a tighter complex.

(Values after paper PMC7003851.)
